From paper PMC12376085 come the findings set out here.

The target of this experiment is HLA-A2/β2M complex on T2 cells (no pulsed peptide) (human (endogenous in T2) | human). Put plainly: flow cytometry on cells. A general note: Flow cytometry measures light scatter and fluorescence of single cells or particles in a stream.

As to RMFPNAPYL [… peptide (WT1 126–134)], the MFI of surface HLA-A2 on peptide-pulsed T2 cells came out at 74200.
In the case of ILSLELMKL [… peptide], the MFI of surface HLA-A2 on peptide-pulsed T2 cells was 53900.
